# Reference: US20110097341A1 (Pfizer, published 2011)
# Residue numbers refer to the chain shown, from its start. Read-outs that look alike come from different tables or passages of the source.
# B1: 3C (Fab, V domains shown)
# VH: QVQLQESGPGLVKPSETLSLTCTVSGFSLIGYDLNWIRQPPGKGLEWIGIIWGDGTTDYNSAVKSRVTISKDTSKNQFSLKLSSVTAADTAVYYCARGGYWYATSYYFDYWGQGTLVTVS
# VL: DIQMTQSPSSLSASVGDRVTITCRASQSISNNLNWYQQKPGKAPKLLIYYTSRFHSGVPSRFSGSGSGTDFTFTISSLQPEDIATYYCQQERTLPYTFGQGTKLEIKR
# B2: 8L2-6D5 (Fab, V domains shown)
# VH: B1 VH with L34I, I50M, V63L, W101Y, A103G
# VL: B1 VL with S28D, N32H, T51I, E91S, R92K
# B3: H19-L129 (Fab, V domains shown)
# VH: B1 VH with W101Y, A103G
# VL: B1 VL with E91S, R92K
# B4: Fab E3 (Fab, V domains shown)
# VH: B1 VH
# VL: B1 VL with R92H
# What was measured:
# Test in all cases: cell-based or functional assay
# rat NGF [1] = target: T1, rat NGF (rat, UniProt P25427 122-241)
# human NGF = human NGF (human, UniProt P01138 122-241)
# rat NGF [2] = target: T1, rat NGF; remark: listed apart in the source
# rat NGF [3] = target: T1, rat NGF; remark: listed apart in the source
# Chain of human NGF (P01138 122-241 limits assumed): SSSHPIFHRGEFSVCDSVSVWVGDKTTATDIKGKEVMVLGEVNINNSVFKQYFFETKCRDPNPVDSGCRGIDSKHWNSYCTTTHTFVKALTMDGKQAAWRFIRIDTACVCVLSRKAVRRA
# T1 sequence (P25427 122-241 limits assumed): as the sequence (P01138 122-241 limits assumed) above, with S3T, I6V, R9M, M37T, D60A, D65E, M92T, G94D, V117A, A120G counted along it
Molecule,"IC50 (1.5 pM NGF), NGF-dependent survival of mouse E13.5 trigeminal neurons (rat NGF [1])","IC50 (15 pM NGF), NGF-dependent survival of mouse E13.5 trigeminal neurons (rat NGF [1])","IC50 (in the presence of 1.5 pM NGF), NGF-dependent survival of mouse E13.5 trigeminal neurons (human NGF)","IC50 (in the presence of 15 pM NGF), NGF-dependent survival of mouse E13.5 trigeminal neurons (human NGF)",concentration that totally blocked NGF-elicited survival of trigeminal neurons (human NGF),"IC50 (1.5 pM NGF), NGF-dependent survival of mouse E13.5 trigeminal neurons (rat NGF [2])","IC50 (15 pM NGF), NGF-dependent survival of mouse E13.5 trigeminal neurons (rat NGF [2])","IC50 in the presence of 15 pM rat NGF, trigeminal neuron survival (rat NGF [3])"
mouse antibody 911 (Fab),34.6 pM,161 pM,63.5 pM,322 pM,20 nM,,,
B1,,,5.6 pM,80.9 pM,,6 pM,31.6 pM,
B2,,,462 pM,1580 pM,,169 pM,730 pM,
B3,,,9.6 pM,60.1 pM,,6 pM,31 pM,
B4,,,< 1.2 pM,< 21 pM,,< 1.3 pM,< 8.3 pM,~31.6 pM
